Experiments:
cIAP1 [1] = molecular target: T1, cIAP1 (human, UniProt Q13490 1-618); assay: immunoprecipitation of endogenous cIAP1 from transfected HEK293T cells (FIG. 6D right panel)
T1 construct: Also used for general sentences that say only 'cIAP1'; also called endogenous cIAP1
Description: (§1) Left panel: Binding in vitro. […] Right and bottom panels depict binding in transfected HEK293T cells. […] After 28 h the endogenous cIAP1 was immunoprecipitated. MG132 was applied for the last 6 h of incubation. […] After 28 h the transfected proteins were immunoprecipitated and probed for co-precipitated endogenous cIAP1. MG132 was applied for the last 6 h of incubation. […] N/A, not analyzed. The asterisk denotes assessment in the yeast two-hybrid test. […] The indicated plasmids were co-transfected into HEK293T cells.

cIAP1 [2] = molecular target: T1, cIAP1; assay: immunoprecipitation of the transfected protein, probed for co-precipitated endogenous cIAP1 (FIG. 6D bottom panel)
Description: as §1

SIVA2 [3] = assay: SIVA2 protein level in PBMCs, western blotting with anti-SIVA antibody; type: cell-based, human; conditions: resting PBMCs, ligands for 8 h
Description: For each cell line, cellular protein (30 μg) was resolved by 13.5% SDS-PAGE and probed with anti-SIVA antibody. The two lanes at the right show SIVA1 and SIVA2 overexpressed in HEK-293T cells (for each protein, 2 μg cDNA/well in 6-well plates). […] Cells (2×10^6) were treated with the indicated ligands for 8 h and the cell lysates were analyzed by western blotting. […] The cells were stimulated with PHA (1 μg/ml) for 48 h, washed twice with phosphate-buffered saline, and incubated for an additional period of 18 h without PHA. Ligands and genotoxic agents (camptothecin (CPT) 10 μM and cisplatin (CIS) 50 μM) were then applied for 18 h. MG132 was applied for the last 4 h of treatment. Except where otherwise indicated, MG132 was applied in this study at a concentration of […] denotes a non-specific band serving as loading control. […] PBMCs were activated as in FIG. 1d. Ligands were applied to the indicated cell types for 18 h. Semi-quantitative RT-PCR for SIVA message was performed as described in Methods. GAPDH was used as a basis for normalization. […] SIVA2 or SIVA1 plasmids (0.5 μg) were transfected, and 18 h later ligands were applied for 8 h. Total-cell lysates were analyzed by western blotting using anti-SIVA antibody. […] EcR-293-CD27-SIVA2 cells (see Methods) were treated with ponasterone and CD70 as indicated. Total-cell lysates were analyzed by western blotting using LDH as the loading control (bottom panel). […] HEK-293T cells were transfected with FLAG-SIVA2 and analyzed 24 h after transfection. MG132 was applied for the last 4 h of treatment. TCL, total cell lysate. […] Top: HepG2 cells were treated with CPT for 18 h. When indicated, they were transfected with pSUPER SIVA 30 h prior to CPT application. Cells lysates were analyzed by western blotting using anti-SIVA antibody. Middle: HepG2 cells were exposed to UVC (20 J/m^2) and levels of SIVA proteins were determined after 18 h of treatment. […] Bottom: HEK-293T cells were transfected with 0.5 μg of FLAG-SIVA2. CPT and CD40L were applied, 8 h after transfection, for a further 18 h.
Cells. Peripheral-blood mononuclear cells (PBMCs) were isolated from buffy-coat samples and cultured as described (Ramakrishnan et al., 2004). Ecdysone-inducible EcR-293-CD27 cell lines expressing SIVA2 (EcR-293-CD27-SIVA2) or SIVA1 (EcR-293-CD27-SIVA1) and EcR-293-CD40 were generated by transfection using the calcium phosphate method according to the instructions of the manufacturer (Invitrogen). All adherent cells—HEK-293T, EcR-293 (Invitrogen), HeLa, HeLa T-REx (Invitrogen), and HepG2—were cultured in Dulbecco's modified Eagle's medium. Both culture media were supplemented with 10% fetal calf serum, 100 U/ml pencillin, and 100 μg/ml streptomycin. The human lymphoblastoid lines Ramos (Human Burkitt's lymphoma cell line) and BJAB (B-lymphoblastoma cell line) were cultured in RPMI medium. Ecdysone-inducible EcR293-CD27 and EcR293-CD40 cell lines were generated by their stable transfection with cDNAs for human CD27 and CD40, respectively. EcR293-CD27 cell lines expressing SIVA2 (EcR293-CD27-SIVA2) or SIVA1 (EcR293-CD27-SIVA1) were generated by transfection using the calcium phosphate method, and myc NIK and myc NIK (K670A) were later introduced into these cells by retroviral transduction and selection with 1 μg/ml puromycin. Ramos cells constitutively expressing myc-NIK were generated by retroviral transduction, followed by selection with 1 μg/ml puromycin. […]

SIVA1 = SIVA1 protein level in PBMCs, western blotting with anti-SIVA antibody; type: cell-based, human; conditions: resting PBMCs, ligands for 8 h
Description: For each cell line, cellular protein (30 μg) was resolved by 13.5% SDS-PAGE and probed with anti-SIVA antibody. The two lanes at the right show SIVA1 and SIVA2 overexpressed in HEK-293T cells (for each protein, 2 μg cDNA/well in 6-well plates). […] Cells (2×10^6) were treated with the indicated ligands for 8 h and the cell lysates were analyzed by western blotting. […] The cells were stimulated with PHA (1 μg/ml) for 48 h, washed twice with phosphate-buffered saline, and incubated for an additional period of 18 h without PHA. Ligands and genotoxic agents (camptothecin (CPT) 10 μM and cisplatin (CIS) 50 μM) were then applied for 18 h. MG132 was applied for the last 4 h of treatment. Except where otherwise indicated, MG132 was applied in this study at a concentration of […] denotes a non-specific band serving as loading control. […] Semi-quantitative RT-PCR for SIVA message was performed as described in Methods. […] Total-cell lysates were analyzed by western blotting using anti-SIVA antibody. […] Total-cell lysates were analyzed by western blotting using LDH as the loading control (bottom panel). […] HEK-293T cells were transfected with FLAG-SIVA2 and analyzed 24 h after transfection. […] Cells lysates were analyzed by western blotting using anti-SIVA antibody. Middle: HepG2 cells were exposed to UVC (20 J/m^2) and levels of SIVA proteins were determined after 18 h of treatment. […]

SIVA2 [4] = assay: SIVA2 level/stabilization in transfected HEK-293T and EcR-293 cells, western blotting; type: cell-based, human; conditions: EcR-293-CD27-SIVA2 cells, ponasterone
Description: (A) Expression of SIVA1 and SIVA2 in various cell lines. For each cell line, cellular protein (30 μg) was resolved by 13.5% SDS-PAGE and probed with anti-SIVA antibody. The two lanes at the right show SIVA1 and SIVA2 overexpressed in HEK-293T cells (for each protein, 2 μg cDNA/well in 6-well plates). (B) Several SIVA isoforms are expressed in PBMCs. […] (C) Ligand activation increases the amount of SIVA2 in resting PBMCs. Cells (2×10^6) were treated with the indicated ligands for 8 h and the cell lysates were analyzed by western blotting. […] The cells were stimulated with PHA (1 μg/ml) for 48 h, washed twice with phosphate-buffered saline, and incubated for an additional period of 18 h without PHA. Ligands and genotoxic agents (camptothecin (CPT) 10 μM and cisplatin (CIS) 50 μM) were then applied for 18 h. MG132 was applied for the last 4 h of treatment. Except where otherwise indicated, MG132 was applied in this study at a concentration of […] denotes a non-specific band serving as loading control. […] PBMCs were activated as in FIG. 1d. Ligands were applied to the indicated cell types for 18 h. Semi-quantitative RT-PCR for SIVA message was performed as described in Methods. GAPDH was used as a basis for normalization. […] SIVA2 or SIVA1 plasmids (0.5 μg) were transfected, and 18 h later ligands were applied for 8 h. Total-cell lysates were analyzed by western blotting using anti-SIVA antibody. TNF-induced SIVA2 stabilization was assessed in EcR-293-CD27 cells. (G) Inducibly expressed SIVA2 is stabilized by CD70. EcR-293-CD27-SIVA2 cells (see Methods) were treated with ponasterone and CD70 as indicated. Total-cell lysates were analyzed by western blotting using LDH as the loading control (bottom panel). […] HEK-293T cells were transfected with FLAG-SIVA2 and analyzed 24 h after transfection. MG132 was applied for the last 4 h of treatment. TCL, total cell lysate. (I) Differential effects of genotoxic agents on the expression of SIVA1 and SIVA2. Top: HepG2 cells were treated with CPT for 18 h. When indicated, they were transfected with pSUPER SIVA 30 h prior to CPT application. Cells lysates were analyzed by western blotting using anti-SIVA antibody. Middle: HepG2 cells were exposed to UVC (20 J/m^2) and levels of SIVA proteins were determined after 18 h of treatment. […] Bottom: HEK-293T cells were transfected with 0.5 μg of FLAG-SIVA2. CPT and CD40L were applied, 8 h after transfection, for a further 18 h.
HEK-293T cells cotransfected with NIK and SIVA2 were metabolically labeled with azido-GlcNAc, in-vitro biotinylated, and immunoprecipitated. The biotin-labeled GlcNAc moieties in SIVA2 were detected with streptavidin horseradish peroxidase (HRP). (B) SIVA binds to wheatgerm-agglutinin. The plasmids for SIVA2, alone or together with NIK or TRAF2, were transiently expressed in HEK-293T cells. Lactacystin was applied for the last 6 h of the 24-h treatment period. Lysates were analyzed for expression (right panel) and WGA binding (left panel) of SIVA2. N-acetyl-D-glucosamine (0.5 M) was added as a competitor for WGA binding. […] FLAG-SIVA2 was cotransfected with myc-NIK into HEK-293T cells and immunoprecipitated with anti-FLAG-M2 beads. The immunoprecipitated beads were boiled with 1% SDS and the eluted proteins were treated with […] hexosaminidase as described (Whelan, 2006). The samples were collected after treatment for 4, 8, and 20 h, diluted with WGA binding buffer, and lectin binding was assayed as described in Methods. Immunoprecipitation of the protein with anti-FLAG-M2 beads after treatment for 8 h as described above, followed by western analysis, confirmed that despite having lost the ability to bind to WGA the protein remained intact. ‘Sup’, SIVA protein remaining unbound after the reaction. […] The plasmids were transiently expressed in HEK-293T cells. DON (50 μM) was applied for the last 16 h and MG132 for the last 6 h of the 28-h treatment period. […] The experiment was performed as in (D). […]

T1 sequence (Q13490 whole entry): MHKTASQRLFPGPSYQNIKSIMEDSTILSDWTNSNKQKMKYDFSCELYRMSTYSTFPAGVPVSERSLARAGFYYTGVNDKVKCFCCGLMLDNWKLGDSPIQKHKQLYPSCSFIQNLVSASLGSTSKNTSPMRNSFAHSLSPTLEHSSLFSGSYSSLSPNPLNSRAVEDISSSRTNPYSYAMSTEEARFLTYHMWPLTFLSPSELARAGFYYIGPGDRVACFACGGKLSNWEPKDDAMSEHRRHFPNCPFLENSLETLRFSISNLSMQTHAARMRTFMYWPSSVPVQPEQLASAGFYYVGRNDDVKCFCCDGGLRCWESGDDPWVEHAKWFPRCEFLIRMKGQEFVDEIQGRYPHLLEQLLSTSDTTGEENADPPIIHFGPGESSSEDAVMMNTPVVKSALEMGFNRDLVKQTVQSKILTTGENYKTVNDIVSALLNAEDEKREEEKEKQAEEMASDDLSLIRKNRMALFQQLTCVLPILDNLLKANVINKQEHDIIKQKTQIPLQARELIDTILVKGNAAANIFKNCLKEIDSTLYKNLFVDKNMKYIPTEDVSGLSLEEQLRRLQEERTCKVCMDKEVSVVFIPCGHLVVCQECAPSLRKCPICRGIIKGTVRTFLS

Molecule | binding result (cIAP1 [1]) | SIVA2 expression (SIVA2 [3]) | SIVA1 expression (SIVA1) | other results
HIS-SIVA2 (1-58) (other, not shown: small tags and cut ends, also called SIVA N-terminus) MPKRSCPFADVAPLQLKVRVSQRELSRGVCAERYSQEVFDPSGVASIACSSCVRAVDG | binds | – | – | –
FLAG-SIVA2 (1-58) (other, not shown: small tags and cut ends, also called SIVA N-terminus) MPKRSCPFADVAPLQLKVRVSQRELSRGVCAERYSQEVFDPSGVASIACSSCVRAVDG | – | – | – | binding result (cIAP1 [2]): binds
HIS-SIVA2 (other, not shown: small tags and cut ends, Expressed by transfection in HEK293T cells) MPKRSCPFADVAPLQLKVRVSQRELSRGVCAERYSQEVFDPSGVASIACSSCVRAVDGKAVCGQCERALCGQCVRTCWGCGSVACTLCGLVDCSDMYEKVLCTSCAMFET | binds | – | – | –
CD154: CD40 ligand; hCD40L produced by large-scale transfection of HEK-293T cells (protein, UniProt P29965 113-261, looked up) CD40 ligand, soluble form: MQKGDQNPQIAAHVISEASSKTTSVLQWAEKGYYTMSNNLVTLENGKQLTVKRQGLYYIYAQVTFCSNREASSQAPFIASLCLKSPGRFERILLRAANTHSSAKPCGQQSIHLGGVFELQPGASVFVNVTDPSQVSHGTGFTSFGLLKL | – | extensive enhancement | did not affect | –
CD70: CD27 ligand; mCD70 produced by large-scale transfection of HEK-293T cells (protein, UniProt O55237 1-195, looked up) CD70 antigen: MPEEGRPCPWVRWSGTAFQRQWPWLLLVVFITVFCCWFHCSGLLSKQQQRLLEHPEPHTAELQLNLTVPRKDPTLRWGAGPALGRSFTHGPELEEGHLRIHQDGLYRLHIQVTLANCSSPGSTLQHRATLAVGICSPAAHGISLLRGRFGQDCTVALQRLTYLVHGDVLCTNLTLPLLPSRNADETFFGVQWICP | – | extensive enhancement | did not affect | stabilization of inducibly expressed SIVA2 (SIVA2 [4]): stabilized

— patent publication US20110293593A1, “SIVA 2 STABILIZATION” (YEDA RESEARCH AND DEVELOPMENT CO., LTD., priority 2008, published 2011)
